± gives the standard deviation of the averaged measurements.
How the values were obtained:
Saccharomyces cerevisiae [1] = assay: protein stability index of tFT-peptide fusion (C-terminal peptide) (PSI (0-1 scale)); higher = more stable (slower turnover); conditions: genetic background: wild type; temperature: 30 C
Saccharomyces cerevisiae [2] = assay: as above
Protocol: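 MPS profiling in S. cerevisiae of the tFT-X12 degron library: putative degron peptides plus stable controls, 12 aa, fused to the C-terminus of a sfGFP-mCherry timer. Cells are FACS-sorted into 8 mCherry/sfGFP bins and deep-sequenced. PSI runs from 0 (unstable) to 1 (stable). Backgrounds are wild type, das1Δ and doa10Δ at 30 °C, and wild type, das1Δ, cdc34-1 and cdc53-1 at 37 °C; 2-3 technical replicates each.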

[3] = genetic background: cdc34-1, temperature: 37 C
[4] = genetic background: cdc53-1, temperature: 37 C
[5] = genetic background: das1 deletion, temperature: 30 C
[6] = genetic background: das1 deletion, temperature: 37 C
[7] = genetic background: doa10 deletion, temperature: 30 C
[8] = genetic background: wild type, temperature: 30 C
[9] = genetic background: wild type, temperature: 37 C
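Further: PSI is a weighted mean of sequencing reads over stability bins, variants kept only with over 10 reads, mCherry proximal and sfGFP distal, peptide attached via GGGS linker.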

| Sequence | protein stability index (Saccharomyces cerevisiae [1]) | protein stability index (Saccharomyces cerevisiae [2]; [3]) | protein stability index (Saccharomyces cerevisiae [2]; [4]) | protein stability index (Saccharomyces cerevisiae [2]; [5]) | protein stability index (Saccharomyces cerevisiae [2]; [6]) | protein stability index (Saccharomyces cerevisiae [2]; [7]) | protein stability index (Saccharomyces cerevisiae [2]; [8]) | protein stability index (Saccharomyces cerevisiae [2]; [9]) |
| --- | --- | --- | --- | --- | --- | --- | --- | --- |
| GCVVLNTVAFIC | 0.167 ± 0.037 | 0.492 ± 0.0084 | 0.583 ± 0.017 | 0.448 ± 0.025 | 0.625 ± 0.0075 | 0.108 ± 0.0055 | 0.127 ± 0.019 | 0.136 ± 0.018 |
| GELDVRKLLKYF | 0.342 ± 0.086 | 0.688 ± 0.02 | 0.718 ± 0.043 | 0.669 ± 0.011 | 0.768 ± 0.019 | 0.154 ± 0.034 | 0.172 ± 0.036 | 0.383 ± 0.0041 |
| GFAFFIGLSFAF | 0.475 ± 0.034 | 0.559 ± 0.015 | 0.588 ± 0.012 | 0.459 ± 0.025 | 0.5794 ± 0.0051 | 0.465 ± 0.0074 | 0.461 ± 0.01 | 0.565 ± 0.011 |
| GFFCVWSLLFFN | 0.283 ± 0.016 | 0.328 ± 0.045 | 0.395 ± 0.016 | 0.262 ± 0.045 | 0.449 ± 0.018 | 0.218 ± 0.031 | 0.187 ± 0.021 | 0.385 ± 0.005 |
| GFFLCTCIRFWV | 0.316 ± 0.016 | 0.452 ± 0.018 | 0.518 ± 0.034 | 0.386 ± 0.027 | 0.544 ± 0.01 | 0.2478 ± 0.0011 | 0.254 ± 0.028 | 0.421 ± 0.018 |
| GFLRTVHFLLLG | 0.354 ± 0.054 | 0.634 ± 0.1 | 0.675 ± 0.0077 | 0.575 ± 0.012 | 0.721 ± 0.037 | 0.225 ± 0.0044 | 0.251 ± 0.035 | 0.4702 ± 0.0038 |
| GFNIFFFFFFFV | 0.326 ± 0.0089 | 0.21 ± 0.051 | 0.223 ± 0.035 | 0.202 ± 0.02 | 0.297 ± 0.019 | 0.281 ± 0.0099 | 0.173 ± 0.006 | 0.247 ± 0.021 |
| GFPFLCSFLLAS | 0.382 ± 0.013 | 0.384 ± 0.0044 | 0.412 ± 0.0058 | 0.298 ± 0.04 | 0.472 ± 0.011 | 0.253 ± 0.005 | 0.291 ± 0.026 | 0.453 ± 0.005 |
| GFPFLFILYFLC | 0.158 ± 0.019 | 0.161 ± 0.03 | 0.257 ± 0.013 | 0.224 ± 0.02 | 0.385 ± 0.0061 | 0.111 ± 0.0087 | 0.0763 ± 0.036 | 0.105 ± 0.0019 |
| GGGAGVVWVRLG | 0.235 ± 0.035 | 0.5376 ± 0.0049 | 0.732 ± 0.022 | 0.642 ± 0.0084 | 0.7415 ± 0.0037 | 0.112 ± 0.0043 | 0.12 ± 0.027 | 0.166 ± 0.011 |
| GGGVGGAVVLFW | 0.408 ± 0.013 | 0.651 ± 0.023 | 0.764 ± 0.029 | 0.527 ± 0.016 | 0.718 ± 0.0021 | 0.528 ± 0.01 | 0.565 ± 0.027 | 0.716 ± 0.0033 |
| GGGWCVWMVWFG | 0.401 ± 0.024 | 0.482 ± 0.036 | 0.568 ± 0.0063 | 0.411 ± 0.03 | 0.595 ± 0.011 | 0.23 ± 0.006 | 0.261 ± 0.027 | 0.481 ± 0.036 |
| GGIRLRVRFFVI | 0.247 ± 0.019 | 0.584 ± 0.061 | 0.658 ± 0.011 | 0.53 ± 0.026 | 0.6152 ± 0.0058 | 0.158 ± 0.0059 | 0.168 ± 0.023 | 0.236 ± 0.016 |
| GGSGGVSWRRVV | 0.395 ± 0.022 | 0.68 ± 0.034 | 0.735 ± 0.0088 | 0.654 ± 0.011 | 0.725 ± 0.01 | 0.223 ± 0.019 | 0.264 ± 0.018 | 0.546 ± 0.051 |
| GGSIKRFVILVL | 0.406 ± 0.022 | 0.416 ± 0.027 | 0.489 ± 0.0076 | 0.3 ± 0.044 | 0.525 ± 0.017 | 0.259 ± 0.006 | 0.304 ± 0.024 | 0.482 ± 0.027 |
| GGSKIGFTVGGG | 0.721 ± 0.018 | 0.686 ± 0.024 | 0.741 ± 0.017 | 0.645 ± 0.013 | 0.738 ± 0.013 | 0.642 ± 0.018 | 0.664 ± 0.02 | 0.725 ± 0.0018 |
| GGTGGAGSRGQI | 0.499 ± 0.099 | 0.641 ± 0.069 | 0.741 ± 0.01 | 0.6181 ± 0.0046 | 0.724 ± 0.02 | 0.644 ± 0.0041 | 0.657 ± 0.011 | 0.7316 ± 0.007 |
| GGWFFWVGAWVV | 0.193 ± 0.0025 | 0.173 ± 0.005 | 0.346 ± 0.028 | 0.202 ± 0.026 | 0.3957 ± 0.0013 | 0.102 ± 0.018 | 0.121 ± 0.025 | 0.214 ± 0.0027 |
| GGWRVLHAWVAV | 0.463 ± 0.015 | 0.651 ± 0.045 | 0.682 ± 0.012 | 0.546 ± 0.019 | 0.6866 ± 0.00041 | 0.278 ± 0.0058 | 0.328 ± 0.023 | 0.553 ± 0.023 |

Reference: the supplement of paper PMC10724198
